Values belong to the binder of their own block, whether it stands above or below them. Numbered stars: 1 amine (or outer) side, 2 acyl side, 3 side chain; on linkers, the order of the positions; unused ones are H or OH. Bridge positions count the residues as written; N and C are the ends. * marks the point of attachment. C20 diacid = O=C(O)CCCCCCCCCCCCCCCCCCC(=O)*; γGlu = O=C(O)[C@H](CCC(=O)[*:2])N[*:1]
Target: T1, human calcitonin receptor (human, UniProt P30988 25-474)
T1 sequence (looked up): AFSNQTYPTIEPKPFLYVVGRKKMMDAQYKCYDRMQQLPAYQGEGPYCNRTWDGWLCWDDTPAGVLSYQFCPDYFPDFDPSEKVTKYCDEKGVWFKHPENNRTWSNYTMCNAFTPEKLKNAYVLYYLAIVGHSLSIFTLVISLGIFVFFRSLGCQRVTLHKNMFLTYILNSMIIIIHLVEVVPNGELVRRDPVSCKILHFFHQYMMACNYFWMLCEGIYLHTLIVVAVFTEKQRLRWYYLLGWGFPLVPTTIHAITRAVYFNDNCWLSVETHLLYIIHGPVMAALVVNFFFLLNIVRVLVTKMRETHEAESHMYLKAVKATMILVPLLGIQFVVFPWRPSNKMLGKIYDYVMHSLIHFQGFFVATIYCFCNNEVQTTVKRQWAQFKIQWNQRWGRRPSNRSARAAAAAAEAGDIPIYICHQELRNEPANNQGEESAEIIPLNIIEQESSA
Assay: cell-based or functional assay

hCTR funct. EC50: 0.717 nM
B2: N^α1-[(4S)-4-carboxy-4-(19-carboxynonadecanoylamino)butanoyl]-[Glu14,Arg17,Pro21,Pro27,Pro31]-h-amylin (peptide)
peptide: {C20 diacid-γGlu}-KCNTATCATQRLAEFLRHSSPNFGAIPSSTPVGSNTY-NH2
modifications: disulfide 2-7
SMILES: CC[C@H](C)[C@H](NC(=O)[C@H](C)NC(=O)CNC(=O)[C@H](Cc1ccccc1)NC(=O)[C@H](CC(N)=O)NC(=O)[C@@H]1CCCN1C(=O)[C@H](CO)NC(=O)[C@H](CO)NC(=O)[C@H](Cc1c[nH]cn1)NC(=O)[C@H](CCCNC(=N)N)NC(=O)[C@H](CC(C)C)NC(=O)[C@H](Cc1ccccc1)NC(=O)[C@H](CCC(=O)O)NC(=O)[C@H](C)NC(=O)[C@H](CC(C)C)NC(=O)[C@H](CCCNC(=N)N)NC(=O)[C@H](CCC(N)=O)NC(=O)[C@@H](NC(=O)[C@H](C)NC(=O)[C@@H]1CSSC[C@H](NC(=O)[C@H](CCCCN)NC(=O)CC[C@H](NC(=O)CCCCCCCCCCCCCCCCCCC(=O)O)C(=O)O)C(=O)N[C@@H](CC(N)=O)C(=O)N[C@@H]([C@@H](C)O)C(=O)N[C@@H](C)C(=O)N[C@@H]([C@@H](C)O)C(=O)N1)[C@@H](C)O)C(=O)N1CCC[C@H]1C(=O)N[C@@H](CO)C(=O)N[C@@H](CO)C(=O)N[C@H](C(=O)N1CCC[C@H]1C(=O)N[C@H](C(=O)NCC(=O)N[C@@H](CO)C(=O)N[C@@H](CC(N)=O)C(=O)N[C@H](C(=O)N[C@@H](Cc1ccc(O)cc1)C(N)=O)[C@@H](C)O)C(C)C)[C@@H](C)O
notes: h-amylin derivative; disulfide bridge and C-terminal amide as told for human amylin; also called compound 31

hCTR funct. EC50: 0.327 nM
B5: N^α1-[(4S)-4-carboxy-4-(19-carboxynonadecanoylamino)butanoyl]-[Glu14,Arg17,Pro21,Pro27,Pro34]-h-amylin (peptide)
peptide: {C20 diacid-γGlu}-KCNTATCATQRLAEFLRHSSPNFGAIPSSTNVGPNTY-NH2
modifications: disulfide 2-7
SMILES: CC[C@H](C)[C@H](NC(=O)[C@H](C)NC(=O)CNC(=O)[C@H](Cc1ccccc1)NC(=O)[C@H](CC(N)=O)NC(=O)[C@@H]1CCCN1C(=O)[C@H](CO)NC(=O)[C@H](CO)NC(=O)[C@H](Cc1c[nH]cn1)NC(=O)[C@H](CCCNC(=N)N)NC(=O)[C@H](CC(C)C)NC(=O)[C@H](Cc1ccccc1)NC(=O)[C@H](CCC(=O)O)NC(=O)[C@H](C)NC(=O)[C@H](CC(C)C)NC(=O)[C@H](CCCNC(=N)N)NC(=O)[C@H](CCC(N)=O)NC(=O)[C@@H](NC(=O)[C@H](C)NC(=O)[C@@H]1CSSC[C@H](NC(=O)[C@H](CCCCN)NC(=O)CC[C@H](NC(=O)CCCCCCCCCCCCCCCCCCC(=O)O)C(=O)O)C(=O)N[C@@H](CC(N)=O)C(=O)N[C@@H]([C@@H](C)O)C(=O)N[C@@H](C)C(=O)N[C@@H]([C@@H](C)O)C(=O)N1)[C@@H](C)O)C(=O)N1CCC[C@H]1C(=O)N[C@@H](CO)C(=O)N[C@@H](CO)C(=O)N[C@H](C(=O)N[C@@H](CC(N)=O)C(=O)N[C@H](C(=O)NCC(=O)N1CCC[C@H]1C(=O)N[C@@H](CC(N)=O)C(=O)N[C@H](C(=O)N[C@@H](Cc1ccc(O)cc1)C(N)=O)[C@@H](C)O)C(C)C)[C@@H](C)O
notes: h-amylin derivative; disulfide bridge and C-terminal amide as told for human amylin; also called compound 32

hCTR funct. EC50: 1.68 nM
B6: N^α1-[(4S)-4-carboxy-4-(19-carboxynonadecanoylamino)butanoyl]-[His14,Arg17,Pro21,Pro27,Glu35]-h-amylin (peptide)
peptide: {C20 diacid-γGlu}-KCNTATCATQRLAHFLRHSSPNFGAIPSSTNVGSETY-NH2
modifications: disulfide 2-7
SMILES: CC[C@H](C)[C@H](NC(=O)[C@H](C)NC(=O)CNC(=O)[C@H](Cc1ccccc1)NC(=O)[C@H](CC(N)=O)NC(=O)[C@@H]1CCCN1C(=O)[C@H](CO)NC(=O)[C@H](CO)NC(=O)[C@H](Cc1c[nH]cn1)NC(=O)[C@H](CCCNC(=N)N)NC(=O)[C@H](CC(C)C)NC(=O)[C@H](Cc1ccccc1)NC(=O)[C@H](Cc1c[nH]cn1)NC(=O)[C@H](C)NC(=O)[C@H](CC(C)C)NC(=O)[C@H](CCCNC(=N)N)NC(=O)[C@H](CCC(N)=O)NC(=O)[C@@H](NC(=O)[C@H](C)NC(=O)[C@@H]1CSSC[C@H](NC(=O)[C@H](CCCCN)NC(=O)CC[C@H](NC(=O)CCCCCCCCCCCCCCCCCCC(=O)O)C(=O)O)C(=O)N[C@@H](CC(N)=O)C(=O)N[C@@H]([C@@H](C)O)C(=O)N[C@@H](C)C(=O)N[C@@H]([C@@H](C)O)C(=O)N1)[C@@H](C)O)C(=O)N1CCC[C@H]1C(=O)N[C@@H](CO)C(=O)N[C@@H](CO)C(=O)N[C@H](C(=O)N[C@@H](CC(N)=O)C(=O)N[C@H](C(=O)NCC(=O)N[C@@H](CO)C(=O)N[C@@H](CCC(=O)O)C(=O)N[C@H](C(=O)N[C@@H](Cc1ccc(O)cc1)C(N)=O)[C@@H](C)O)C(C)C)[C@@H](C)O
notes: h-amylin derivative; disulfide bridge and C-terminal amide as told for human amylin; also called compound 30

hCTR funct. EC50: 2.35 nM
B7: N^α1-[(4S)-4-carboxy-4-(19-carboxynonadecanoylamino)butanoyl]-[Glu14,Arg17,Pro21,Pro27,His34]-h-amylin (peptide)
peptide: {C20 diacid-γGlu}-KCNTATCATQRLAEFLRHSSPNFGAIPSSTNVGHNTY-NH2
modifications: disulfide 2-7
SMILES: CC[C@H](C)[C@H](NC(=O)[C@H](C)NC(=O)CNC(=O)[C@H](Cc1ccccc1)NC(=O)[C@H](CC(N)=O)NC(=O)[C@@H]1CCCN1C(=O)[C@H](CO)NC(=O)[C@H](CO)NC(=O)[C@H](Cc1c[nH]cn1)NC(=O)[C@H](CCCNC(=N)N)NC(=O)[C@H](CC(C)C)NC(=O)[C@H](Cc1ccccc1)NC(=O)[C@H](CCC(=O)O)NC(=O)[C@H](C)NC(=O)[C@H](CC(C)C)NC(=O)[C@H](CCCNC(=N)N)NC(=O)[C@H](CCC(N)=O)NC(=O)[C@@H](NC(=O)[C@H](C)NC(=O)[C@@H]1CSSC[C@H](NC(=O)[C@H](CCCCN)NC(=O)CC[C@H](NC(=O)CCCCCCCCCCCCCCCCCCC(=O)O)C(=O)O)C(=O)N[C@@H](CC(N)=O)C(=O)N[C@@H]([C@@H](C)O)C(=O)N[C@@H](C)C(=O)N[C@@H]([C@@H](C)O)C(=O)N1)[C@@H](C)O)C(=O)N1CCC[C@H]1C(=O)N[C@@H](CO)C(=O)N[C@@H](CO)C(=O)N[C@H](C(=O)N[C@@H](CC(N)=O)C(=O)N[C@H](C(=O)NCC(=O)N[C@@H](Cc1c[nH]cn1)C(=O)N[C@@H](CC(N)=O)C(=O)N[C@H](C(=O)N[C@@H](Cc1ccc(O)cc1)C(N)=O)[C@@H](C)O)C(C)C)[C@@H](C)O
notes: h-amylin derivative; disulfide bridge and C-terminal amide as told for human amylin; also called compound 17

Second part, the binder before the results:

B1: N^α1-[(4S)-4-carboxy-4-(19-carboxynonadecanoylamino)butanoyl]-[Arg17,Pro21,Pro27,Pro31,Glu35]-h-amylin (peptide)
peptide: {C20 diacid-γGlu}-KCNTATCATQRLANFLRHSSPNFGAIPSSTPVGSETY-NH2
modifications: disulfide 2-7
SMILES: CC[C@H](C)[C@H](NC(=O)[C@H](C)NC(=O)CNC(=O)[C@H](Cc1ccccc1)NC(=O)[C@H](CC(N)=O)NC(=O)[C@@H]1CCCN1C(=O)[C@H](CO)NC(=O)[C@H](CO)NC(=O)[C@H](Cc1c[nH]cn1)NC(=O)[C@H](CCCNC(=N)N)NC(=O)[C@H](CC(C)C)NC(=O)[C@H](Cc1ccccc1)NC(=O)[C@H](CC(N)=O)NC(=O)[C@H](C)NC(=O)[C@H](CC(C)C)NC(=O)[C@H](CCCNC(=N)N)NC(=O)[C@H](CCC(N)=O)NC(=O)[C@@H](NC(=O)[C@H](C)NC(=O)[C@@H]1CSSC[C@H](NC(=O)[C@H](CCCCN)NC(=O)CC[C@H](NC(=O)CCCCCCCCCCCCCCCCCCC(=O)O)C(=O)O)C(=O)N[C@@H](CC(N)=O)C(=O)N[C@@H]([C@@H](C)O)C(=O)N[C@@H](C)C(=O)N[C@@H]([C@@H](C)O)C(=O)N1)[C@@H](C)O)C(=O)N1CCC[C@H]1C(=O)N[C@@H](CO)C(=O)N[C@@H](CO)C(=O)N[C@H](C(=O)N1CCC[C@H]1C(=O)N[C@H](C(=O)NCC(=O)N[C@@H](CO)C(=O)N[C@@H](CCC(=O)O)C(=O)N[C@H](C(=O)N[C@@H](Cc1ccc(O)cc1)C(N)=O)[C@@H](C)O)C(C)C)[C@@H](C)O
notes: h-amylin derivative; disulfide bridge and C-terminal amide as told for human amylin; also called compound 28
hCTR funct. EC50: 2.03 nM

B3: N^α1-[(4S)-4-carboxy-4-(19-carboxynonadecanoylamino)butanoyl]-[Glu14,Arg17,Pro21,Pro27,Arg35]-h-amylin (peptide)
peptide: {C20 diacid-γGlu}-KCNTATCATQRLAEFLRHSSPNFGAIPSSTNVGSRTY-NH2
modifications: disulfide 2-7
SMILES: CC[C@H](C)[C@H](NC(=O)[C@H](C)NC(=O)CNC(=O)[C@H](Cc1ccccc1)NC(=O)[C@H](CC(N)=O)NC(=O)[C@@H]1CCCN1C(=O)[C@H](CO)NC(=O)[C@H](CO)NC(=O)[C@H](Cc1c[nH]cn1)NC(=O)[C@H](CCCNC(=N)N)NC(=O)[C@H](CC(C)C)NC(=O)[C@H](Cc1ccccc1)NC(=O)[C@H](CCC(=O)O)NC(=O)[C@H](C)NC(=O)[C@H](CC(C)C)NC(=O)[C@H](CCCNC(=N)N)NC(=O)[C@H](CCC(N)=O)NC(=O)[C@@H](NC(=O)[C@H](C)NC(=O)[C@@H]1CSSC[C@H](NC(=O)[C@H](CCCCN)NC(=O)CC[C@H](NC(=O)CCCCCCCCCCCCCCCCCCC(=O)O)C(=O)O)C(=O)N[C@@H](CC(N)=O)C(=O)N[C@@H]([C@@H](C)O)C(=O)N[C@@H](C)C(=O)N[C@@H]([C@@H](C)O)C(=O)N1)[C@@H](C)O)C(=O)N1CCC[C@H]1C(=O)N[C@@H](CO)C(=O)N[C@@H](CO)C(=O)N[C@H](C(=O)N[C@@H](CC(N)=O)C(=O)N[C@H](C(=O)NCC(=O)N[C@@H](CO)C(=O)N[C@@H](CCCNC(=N)N)C(=O)N[C@H](C(=O)N[C@@H](Cc1ccc(O)cc1)C(N)=O)[C@@H](C)O)C(C)C)[C@@H](C)O
notes: h-amylin derivative; disulfide bridge and C-terminal amide as told for human amylin; also called compound 16
hCTR funct. EC50: 2.21 nM

B4: N^α1-[(4S)-4-carboxy-4-(19-carboxynonadecanoylamino)butanoyl]-[Arg17,Pro21,Pro27,Pro34,Glu35]-h-amylin (peptide)
peptide: {C20 diacid-γGlu}-KCNTATCATQRLANFLRHSSPNFGAIPSSTNVGPETY-NH2
modifications: disulfide 2-7
SMILES: CC[C@H](C)[C@H](NC(=O)[C@H](C)NC(=O)CNC(=O)[C@H](Cc1ccccc1)NC(=O)[C@H](CC(N)=O)NC(=O)[C@@H]1CCCN1C(=O)[C@H](CO)NC(=O)[C@H](CO)NC(=O)[C@H](Cc1c[nH]cn1)NC(=O)[C@H](CCCNC(=N)N)NC(=O)[C@H](CC(C)C)NC(=O)[C@H](Cc1ccccc1)NC(=O)[C@H](CC(N)=O)NC(=O)[C@H](C)NC(=O)[C@H](CC(C)C)NC(=O)[C@H](CCCNC(=N)N)NC(=O)[C@H](CCC(N)=O)NC(=O)[C@@H](NC(=O)[C@H](C)NC(=O)[C@@H]1CSSC[C@H](NC(=O)[C@H](CCCCN)NC(=O)CC[C@H](NC(=O)CCCCCCCCCCCCCCCCCCC(=O)O)C(=O)O)C(=O)N[C@@H](CC(N)=O)C(=O)N[C@@H]([C@@H](C)O)C(=O)N[C@@H](C)C(=O)N[C@@H]([C@@H](C)O)C(=O)N1)[C@@H](C)O)C(=O)N1CCC[C@H]1C(=O)N[C@@H](CO)C(=O)N[C@@H](CO)C(=O)N[C@H](C(=O)N[C@@H](CC(N)=O)C(=O)N[C@H](C(=O)NCC(=O)N1CCC[C@H]1C(=O)N[C@@H](CCC(=O)O)C(=O)N[C@H](C(=O)N[C@@H](Cc1ccc(O)cc1)C(N)=O)[C@@H](C)O)C(C)C)[C@@H](C)O
notes: h-amylin derivative; disulfide bridge and C-terminal amide as told for human amylin; also called compound 29
hCTR funct. EC50: 0.857 nM

— patent publication US20140087995A1 (published 2014)
